Test results taken from article PMC8013792, “Bacterial protein domains with a novel Ig‐like fold target human CEACAM receptors” (The EMBO Journal, 2021).

B3: tag-less CEACAM1 N-terminal domain, unglycosylated (domain or fragment, human)
chain: AQLTTESMPFNVAEGKEVLLLVHNLPQQLFGYSWYKGERVDGNRQIVGYAIGTQQATPGPANSGRETIYPNASLLIQNVTQNDTGFYTLQVIKSDLVNEEATGQFHVY
notes: CEACAM1, human, N-terminal IgV-like domain, tag-less; also called rCEACAM1-N; CC1-N; source: E. coli (pET21d), purified
B4: IgI3 domain of R28 protein, recombinant, as used in ITC (domain or fragment)
chain: KYSPEAKHRTVEQHAELDAKDSIANTDELPSNSTYNWKNGHKPDTSTSGEKDGIVEVHYPDGTVDDVNVKVTVTSKKTDNTAPTLTVTPEQQTVKVDEDITFTVTVEDENEVELGLDDLKAKYENDIIGARVKIKYLTKEPNKKVMEVTIMKATLADKGAITFTAKDKAGNQAEPKTVTINVLPLK
modifications: Construct limits not printed. 233-418 is the unannotated region between the AlphaC C-terminal domain (ends 232) and the first annotated Rib repeat (starts 419); it should enclose the IgI3 domain …

Tests used:
[1] = target: IgSF (IgI3) domain of β protein, recombinant, as used in ITC (Streptococcus agalactiae (GBS)); test: ITC; iTC200, 25°C, 30 mM Tris-HCl, 150 mM NaCl, pH 7.5; typically 500 µM unglycosylated CEACAM-N domain in the syringe, 50 µM IgI3 domain; duplicates
[2] = target: β-IgI3 V53A, as used in ITC (Streptococcus agalactiae (GBS)); test: as above
[3] = target: β-IgI3 D55A, as used in ITC (Streptococcus agalactiae (GBS)); test: as above
[4] = target: β-IgI3 F42A, as used in ITC (Streptococcus agalactiae (GBS)); test: as above
[5] = target: T1, tag-less unglycosylated CEACAM1 N-terminal domain (rCEACAM1-N, pET21d) (human, UniProt P13688 34-141); test: ITC; iTC200, 25 °C, 16 injections of 2.42 µL; typically 500 µM unglycosylated CEACAM-N in the syringe and 50 µM β-IgSF/β-IgI3; 30 mM Tris-HCl, 150 mM NaCl, pH 7.5; duplicates; settings: both partners purified
T1 construct: N-terminal IgV-like domain of human CEACAM1; also called rCC1-N; CC1-N; source: E. coli, pET21d, purified as in Bonsor et al, 2015a
T1 sequence: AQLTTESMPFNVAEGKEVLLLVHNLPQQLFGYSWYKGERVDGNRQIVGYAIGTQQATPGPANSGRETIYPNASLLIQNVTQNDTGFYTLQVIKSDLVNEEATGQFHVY

[6] = target: B4; test: ITC; iTC200, 25°C, 30 mM Tris-HCl, 150 mM NaCl, pH 7.5; typically 500 µM unglycosylated CEACAM-N domain in the syringe, 50 µM IgI3 domain; duplicates; settings: both partners purified
[7] = target: B3; test: as above; settings: both partners purified

For “CEACAM5 N-terminal domain, unglycosylated (domain or fragment)”, the Kd [1] was 152 nM.

“tag-less CEACAM1 N-terminal domain, unglycosylated (from UniProt P13688 34-141) (domain or fragment)” was tested, and the Kd [1] was 96 nM, the Kd [2] was 562 nM and the Kd [3] was 690 nM. The Kd [4] was 16 nM.

“tag-less CEACAM1-N L95A, unglycosylated (from UniProt P13688 34-141) (domain or fragment)” gave a Kd [1] of 1350 nM.

“tag-less CEACAM1-N N97A, unglycosylated (from UniProt P13688 34-141) (domain or fragment)” showed a Kd [1] of 490 nM.

“tag-less CEACAM1-N Q44A, unglycosylated (from UniProt P13688 34-141) (domain or fragment)” was tested, and the Kd [1] was 996 nM.

Molecule “tag-less CEACAM1-N V96A, unglycosylated (from UniProt P13688 34-141) (domain or fragment)” has a Kd [1] of 370 nM.

B1: β-IgI3 L45A (rβIgI3ΔL45A-His) (domain or fragment)
chain: ANENNQQKIELTVSPENITVYEGEDVKFTVTAKSDSKTTLDFSDALTKYNPSVSDRISTNYKTNTDNHKIAEITIKNLKLNESQTVTLKAKDDSGNVVEKTFTITVQKKEEKQ
notes: the substitution is still to be applied; its number counts on the domain's own 1-113; source: E. coli RG (Rosetta Gami), purified (Nickel column)
Molecule B1 has a Kd [5] of 234 nM.

B2: β-IgI3 S52A (rβIgI3ΔS52A-His) (domain or fragment)
chain: ANENNQQKIELTVSPENITVYEGEDVKFTVTAKSDSKTTLDFSDLLTKYNPAVSDRISTNYKTNTDNHKIAEITIKNLKLNESQTVTLKAKDDSGNVVEKTFTITVQKKEEKQ
notes: as for B1
In the case of B2, the Kd [5] is reported as 85 nM.

In the case of B3, the dH [6] is reported as -4.8 ± 0.3 kcal/mol.

B4 showed a Kd [7] of 1050 ± 18 nM.
